We go through six molecules from article PMC5681435, “Differential Regulation of G1 CDK Complexes by the Hsp90-Cdc37 Chaperone System” (Cell Reports, 2017).

Values joined by “and” are separate entries in the source; they are usually repeats but may differ in a detail not shown here. Equal entries are not always repeated. “Also recorded” adds a separate entry of the source. Where only a bound is given, the exact number is not on record here.

The test system of one series is CDK4-cyclin D1. Further details: method as in Koh et al., 1995. The settings on record: ref Koh et al., 1995; cited from earlier work.
The subject of a further series is G1 progression. Details: method as in Koh et al., 1995. Conditions: ref Koh et al., 1995; cited from earlier work.
The next series concerns the target T1, CDK6 (Homo sapiens, UniProt Q00534).
T1 construct: Full length human CDK4 and CDK6 with an N-terminal; made in house; host or cells: Sf9 insect cells (baculovirus, MultiBac)
Put plainly: SPR binding to immobilized GSTCDK6. Conditions: for Kd: GSTCDK6 captured on chip, 4 °C.

The next series addresses T2, CDK4-Cdc37 complex (Homo sapiens, UniProt P11802).
T2 construct: Full length human CDK4 and CDK6 with an N-terminal; made in house; host or cells: GSTCDK4: Sf9 insect cells; Cdc37: E. coli
It counts as binding. Conditions: HTRF competition, 8 nM GSTCDK4, 150 nM C-Avi Cdc37. Background: In TR-FRET formats the signal depends on donor and acceptor labels being close together.

The target in another series is T3, CDK4 (Homo sapiens, UniProt P11802).
T3 construct: Full length human CDK4 and CDK6 with an N-terminal; made in house; host or cells: Sf9 insect cells (baculovirus, MultiBac)
T3 sequence (P11802 whole entry): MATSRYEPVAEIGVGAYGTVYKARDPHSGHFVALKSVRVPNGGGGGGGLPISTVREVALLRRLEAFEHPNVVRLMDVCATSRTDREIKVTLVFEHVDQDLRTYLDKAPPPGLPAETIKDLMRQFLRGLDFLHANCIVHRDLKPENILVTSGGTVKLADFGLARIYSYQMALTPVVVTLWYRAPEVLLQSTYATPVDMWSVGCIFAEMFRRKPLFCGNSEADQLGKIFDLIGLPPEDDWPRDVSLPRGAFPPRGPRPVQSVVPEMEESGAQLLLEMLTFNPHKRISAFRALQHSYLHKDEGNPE
Put plainly: SPR binding to immobilized GSTCDK4. The settings on record: for Binding to CDK4 by SPR (in words): GSTCDK4 captured on chip. A general note: Surface plasmon resonance follows binding to a sensor surface in real time, without labels.

Series [1] can be described thus: Differential scanning fluorimetry (DSF) melting temperature. It counts as physicochemical. Conditions: for Tm: 5 µM protein.
Series [2] deals with T4, CDK6-Cdc37 and CDK6-Cdc37-SfHsp90 complexes (Homo sapiens, UniProt Q00534).
T4 construct: Full length human CDK4 and CDK6 with an N-terminal; made in house; host or cells: Sf9 insect cells (co-expression, baculovirus)
T4 sequence (Q00534 whole entry, one chain of several): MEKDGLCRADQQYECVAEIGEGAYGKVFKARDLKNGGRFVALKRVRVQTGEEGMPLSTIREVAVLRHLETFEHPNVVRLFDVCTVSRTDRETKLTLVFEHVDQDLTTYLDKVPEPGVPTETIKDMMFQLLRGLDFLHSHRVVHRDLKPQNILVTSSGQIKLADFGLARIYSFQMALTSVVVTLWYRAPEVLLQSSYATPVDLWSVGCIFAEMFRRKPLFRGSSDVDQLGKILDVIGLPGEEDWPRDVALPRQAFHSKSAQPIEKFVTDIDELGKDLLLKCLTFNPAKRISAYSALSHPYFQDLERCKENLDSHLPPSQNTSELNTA
Kind of series: Pull-down with Avi-tagged bait from CDK6-Cdc37 and CDK6-Cdc37-SfHsp90 complexes assembled in insect cells. The series is classed as binding. The settings on record: 3-fold molar excess of complex, 4 °C. Here is the method:
exchange chromatography (HiTrap Q, GE Healthcare). Protein concentrations were determined by NanoDrop2000 UV-Vis Spectrophotometer (Thermo Scientific) or using a Shimadzu UV1800 spectrophotometer. A representative SDS-polyacrylamide gel stained with silver is shown in Figure S4 to illustrate the purity of the GSTCDK4 and GSTCDK6 […]
Avi-tagged proteins (Cdc37, p16INK4a, p16INK4a mutants, Kcyclin and Vcyclin) were biotinylated to provide an affinity tag for the streptavidin-tagged XL665 dye. A substantial amount of biotinylated protein was purified from the recombinant E. coli cells as a result of endogenous BirA activity. Proteins were further modified by incubating 40 µM of the Avi-tagged protein with 10 µg BirA in biotinylation buffer (50 mM Bicine pH 8.3, 10 mM ATP, 10 mM MgOAc, 50 µM d-biotin) at 30°C for 60 minutes. […] The extent of protein biotinylation was monitored by pull downs using High Capacity NeutrAvidin® Agarose Resin (Thermo […]
To assemble the various complexes, 15 µg of Cdc37 was mixed with a molar equivalent of CDK6, and incubated for 1hour at 4 °C. […] The reactions were stopped by addition of 2 x LDS buffer and analysed by SDS-PAGE and subsequent western blotting using an anti-phosphorylated S780 antibody […]
Homogenous time-resolved fluorescence (HTRF) […]

T1 sequence (Q00534 whole entry): as the sequence (Q00534 whole entry, one chain of several) above
T2 sequence (P11802 whole entry, one chain of several): as the sequence (P11802 whole entry) above

B1: p16D84N: p16INK4a mutant in which D84 is mutated to an asparagine (protein)
chain: MEPAAGSSMEPSADWLATAAARGRVEEVRALLEAGALPNAPNSYGRRPIQVMMMGSARVAELLLLHGAEPNCADPATLTRPVHNAAREGFLDTLVVLHRAGARLDVRDAWGRLPVDLAEELGHRDVARYLRAAAGGTRGSNHARIDAAEGPSDIPD
For the molecule B1, in the series with CDK4-cyclin D1, the “Inhibition of CDK4-cyclin D1 kinase activity” value is given as “as effectively as wild-type p16INK4a”. Besides, in the series with G1 progression, the “Inhibition of G1 progression” value is “modestly less effective”. Besides, binding in the series with CDK6 was put at a Kd of 60 nM. Also, in the series with CDK4-Cdc37 complex, the “Displacement of Cdc37 from CDK4-Cdc37 complex (in words)” value (“Displacement of Cdc37” for short) is given as “unable to displace CDK4 or CDK6 from Cdc37”. Moreover, the “Binding to CDK4 by SPR (in words)” value with CDK4 is “binding could be detected but not quantified”. The Tm in series [1] was 45.1 (±1.9) °C; in series [1] (listed as D84N), 45.1 °C.

B2: p16M53I: p16INK4a mutant in which M53 is mutated to an isoleucine (protein)
chain: MEPAAGSSMEPSADWLATAAARGRVEEVRALLEAGALPNAPNSYGRRPIQVMIMGSARVAELLLLHGAEPNCADPATLTRPVHDAAREGFLDTLVVLHRAGARLDVRDAWGRLPVDLAEELGHRDVARYLRAAAGGTRGSNHARIDAAEGPSDIPD
Regarding B2, the “Higher rate of dissociation from CDK6 compared with wild-type p16INK4a” value with CDK6 is “approximately 10 fold”. Further, the “Displacement of Cdc37” value in the series with CDK4-Cdc37 complex is listed as “ineffective”. In the series with CDK4, the “Binding to CDK4 by SPR (in words)” value is “binding could be detected but not quantified”. Besides, the “Reduction in the strength of the interaction with CDK4 versus wild-type p16INK4a” value with CDK4 (enhanced koff rate toward CDK4) was > 10^6 fold. In series [1], the “ΔTm (versus p16INK4a)” value was −4.9 (±2.33) °C and the Tm was 42.7 (±0.47) °C. Further, the Tm in series [1] (listed as M53I) was 42.7 °C.

B3: p16D108N: p16INK4a mutant, D108 mutated to an asparagine (protein)
chain: MEPAAGSSMEPSADWLATAAARGRVEEVRALLEAGALPNAPNSYGRRPIQVMMMGSARVAELLLLHGAEPNCADPATLTRPVHDAAREGFLDTLVVLHRAGARLDVRNAWGRLPVDLAEELGHRDVARYLRAAAGGTRGSNHARIDAAEGPSDIPD
As for B3, in the series with CDK4-Cdc37 complex, the “Displacement of Cdc37” value is recorded as “only a modest reduction in activity”. Besides, in series [1], the “ΔTm (versus p16INK4a)” value was −10.5 (±1.29) °C; the Tm was 36.4 °C and 36.4 (±3.1) °C.

B4: p16M53E: p16INK4a M53E mutant (protein)
chain: MEPAAGSSMEPSADWLATAAARGRVEEVRALLEAGALPNAPNSYGRRPIQVMEMGSARVAELLLLHGAEPNCADPATLTRPVHDAAREGFLDTLVVLHRAGARLDVRDAWGRLPVDLAEELGHRDVARYLRAAAGGTRGSNHARIDAAEGPSDIPD
As to B4, in series [1], the “ΔTm (versus p16INK4a)” value was −4.6 (±1.66) °C and the Tm was 43.2 (±0.38) °C.

B5: Vcyclin: viral D-type cyclin from Herpesvirus saimiri (protein)
chain: MADSPNRLNRAKIDSTTMKDPRVLNNLKLRELLLPKFTSLWEIQTEVTVDNRTILLTWMHLLCESFELDKSVFPLSVSILDRYLCKKQGTKKTLQKIGAACVLIGSKIRTVKPMTVSKLTYLSCDCFTNLELINQEKDILEALKWDTEAVLATDFLIPLCNALKIPEDLWPQLYEAASTTICKALIQPNIALLSPGLICAGGLLTTIETDNTNCRPWTCYLEDLSSILNFSTNTVRTVKDQVSEAFSLYDLEIL
On to B5, for which the affinity with CDK6, expressed as Kd, was 0.016 ± 0.013 nM. The “Binding to CDK4 by SPR (in words)” value in the series with CDK4 was “the data quality precluded calculation of a Kd”.

B6: Kcyclin: viral D-type cyclin from Kaposi’s sarcoma-associated herpesvirus (protein)
chain: MATANNPPSGLLDPTLCEDRIFYNILEIEPRFLTSDSVFGTFQQSLTSHMRKLLGTWMFSVCQEYNLEPNVVALALNLLDRLLLIKQVSKEHFQKTGSACLLVASKLRSLTPISTSSLCYAAADSFSRQELIDQEKELLEKLAWRTEAVLATDVTSFLLLKLLGGSQHLDFWHHEVNTLITKALVDPKTGSLPASIISAAGCALLVPANVIPQDTHSGGVVPQLASILGCDVSVLQAAVEQILTSVSDFDLRILDSY
modifications: biotin (on the Avi tag); left off: Avi tag, end not stated, kept
notes: viral D-type cyclin from Kaposi’s sarcoma-associated herpesvirus
For the molecule B6, the “Displacement of CDK6 from CDK6-Cdc37 and CDK6-Cdc37-SfHsp90 (pull-down)” value in series [2] was “able to displace CDK6; also recorded: could extract CDK6”.
